Laboratory results from US20190177411.

Legend:
[1] = target: purified recombinant His-tagged PDK2 (Abcam), Q15119
[2] = target: Flag-tagged T346A PDK1 mutant
[3] = target: purified recombinant His-tagged PDK4 (Abcam), Q16654
[4] = target: purified recombinant His-tagged PDK3 (Abcam), Q15120
[5] = target: Flag-tagged wild type (WT) PDK1 (not specifically T346-phosphorylated: from normoxic PC3 cells, or dephosphorylated before the kinase assay)
[6] = target: purified recombinant His-tagged PDK1 (Abcam)
Chain of purified recombinant His-tagged PDK1 (Abcam) (chain, as listed by the source): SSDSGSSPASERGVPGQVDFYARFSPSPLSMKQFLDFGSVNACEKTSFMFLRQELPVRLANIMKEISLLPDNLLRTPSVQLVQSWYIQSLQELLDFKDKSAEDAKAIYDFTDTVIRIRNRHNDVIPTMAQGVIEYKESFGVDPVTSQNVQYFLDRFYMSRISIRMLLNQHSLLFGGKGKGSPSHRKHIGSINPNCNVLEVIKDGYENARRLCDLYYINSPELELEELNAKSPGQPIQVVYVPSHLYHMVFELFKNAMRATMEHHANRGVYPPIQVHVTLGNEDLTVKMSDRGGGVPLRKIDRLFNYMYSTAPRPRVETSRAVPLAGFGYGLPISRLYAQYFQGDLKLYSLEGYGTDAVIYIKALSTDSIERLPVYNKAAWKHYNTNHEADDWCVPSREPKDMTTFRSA

Chain of purified recombinant His-tagged PDK3 (Abcam), Q15120 (Q15120 whole entry, looked up): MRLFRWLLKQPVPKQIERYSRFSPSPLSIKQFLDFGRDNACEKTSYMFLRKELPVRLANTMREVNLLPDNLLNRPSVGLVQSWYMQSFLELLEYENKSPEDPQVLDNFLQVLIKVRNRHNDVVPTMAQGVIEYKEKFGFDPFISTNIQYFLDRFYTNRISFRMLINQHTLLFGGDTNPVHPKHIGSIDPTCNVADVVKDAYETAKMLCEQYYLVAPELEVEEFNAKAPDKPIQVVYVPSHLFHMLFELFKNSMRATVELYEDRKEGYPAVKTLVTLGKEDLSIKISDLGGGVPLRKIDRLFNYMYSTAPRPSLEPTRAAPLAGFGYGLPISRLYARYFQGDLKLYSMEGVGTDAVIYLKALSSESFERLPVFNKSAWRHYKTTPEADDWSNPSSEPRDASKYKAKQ
Chain of Flag-tagged wild type (WT) PDK1 (not specifically T346-phosphorylated: from normoxic PC3 cells, or dephosphorylated before the kinase assay) (chain, as listed by the source): as the sequence (chain, as listed by the source) above
Chain of Flag-tagged T346A PDK1 mutant (chain, as listed by the source T346A): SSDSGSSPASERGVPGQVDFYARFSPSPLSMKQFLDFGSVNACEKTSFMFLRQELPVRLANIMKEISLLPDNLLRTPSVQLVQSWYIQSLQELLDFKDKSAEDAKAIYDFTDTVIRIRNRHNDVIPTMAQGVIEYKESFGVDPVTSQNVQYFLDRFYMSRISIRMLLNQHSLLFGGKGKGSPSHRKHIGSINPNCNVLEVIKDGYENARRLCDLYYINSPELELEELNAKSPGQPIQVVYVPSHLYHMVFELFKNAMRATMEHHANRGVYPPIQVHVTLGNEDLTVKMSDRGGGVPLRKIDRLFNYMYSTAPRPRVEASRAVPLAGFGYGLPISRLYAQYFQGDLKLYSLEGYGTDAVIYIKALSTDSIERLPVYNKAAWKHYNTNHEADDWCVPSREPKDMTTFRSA
Chain of purified recombinant His-tagged PDK4 (Abcam), Q16654 (Q16654 10-411): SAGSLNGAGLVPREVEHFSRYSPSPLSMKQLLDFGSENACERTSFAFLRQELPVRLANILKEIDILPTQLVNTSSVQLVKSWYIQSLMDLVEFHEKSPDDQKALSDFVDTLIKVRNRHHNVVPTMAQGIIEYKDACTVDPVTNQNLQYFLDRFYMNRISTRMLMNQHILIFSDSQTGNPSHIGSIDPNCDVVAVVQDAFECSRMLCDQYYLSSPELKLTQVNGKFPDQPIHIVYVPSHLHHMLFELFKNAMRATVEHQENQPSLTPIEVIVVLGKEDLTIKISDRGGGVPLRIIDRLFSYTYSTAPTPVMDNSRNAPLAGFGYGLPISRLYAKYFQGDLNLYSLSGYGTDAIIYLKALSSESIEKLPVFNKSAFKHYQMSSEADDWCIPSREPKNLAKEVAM

B1: kinase active Akt2 (SignalChem) (protein)
chain: MNEVSVIKEGWLHKRGEYIKTWRPRYFLLKSDGSFIGYKERPEAPDQTLPPLNNFSVAECQLMKTERPRPNTFVIRCLQWTTVIERTFHVDSPDEREEWMRAIQMVANSLKQRAPGEDPMDYKCGSPSDSSTTEEMEVAVSKARAKVTMNDFDYLKLLGKGTFGKVILVREKATGRYYAMKILRKEVIIAKDEVAHTVTESRVLQNTRHPFLTALKYAFQTHDRLCFVMEYANGGELFFHLSRERVFTEERARFYGAEIVSALEYLHSRDVVYRDIKLENLMLDKDGHIKITDFGLCKEGISDGATMKTFCGTPEYLAPEVLEDNDYGRAVDWWGLGVVMYEMMCGRLPFYNQDHERLFELILMEEIRFPRTLSPEAKSLLAGLLKKDPKQRLGGGPSDAKEVMEHRFFLSINWQDVVQKKLLPPFKPQVTSEVDTRYFDDEFTAQSITITPPDRYDSLGLLELDQRTHFPQFSYSASIRE
In the case of B1, the “phosphorylation in a kinase assay, Western blotting with Akt cons Ab” value (shortened to “phosphorylation in a kinase assay”) [1] is reported as “related PDK2, PDK3 or PDK4 isoforms were unreactive”, the “phosphorylation of Flag immune complexes in a kinase assay, Western blotting with Akt cons Ab” value [2] is reported as “but not a phosphorylation-defective Thr346→Ala (T346A) PDK1 mutant” and the “phosphorylation in a kinase assay” value [3] is reported as “related PDK2, PDK3 or PDK4 isoforms were unreactive”. For the same protein, the “phosphorylation in a kinase assay” value [4] was “related PDK2, PDK3 or PDK4 isoforms were unreactive”, the “phosphorylation of Flag immune complexes in a kinase assay, Western blotting with Akt cons Ab” value [5] was “active Akt2 phosphorylated wild type (WT) PDK1” and the “phosphorylation in a kinase assay” value [6] was “active Akt1 or Akt2 readily phosphorylated PDK1”. The “phosphorylation site by LC-MS/MS of chymotrypsin digests after a kinase assay” value [6] was “Thr346 (T346) was identified ... as the sole phospho-amino acid modified by Akt1 or Akt2, compared to control”.
